Assays:
[1] = biological target: Klebsiella pneumoniae PriA helicase (Klebsiella pneumoniae subsp. pneumoniae MGH 78578) (UniProt A6TGC5)
PaSSB = PaSSB (Pseudomonas aeruginosa, UniProt P40947 1-165); experiment: EMSA
PaSSB(W88A) = PaSSB(W88A) (Pseudomonas aeruginosa, UniProt P40947 1-165, W88A); experiment: EMSA
PaSSB(W40A) = PaSSB(W40A) (Pseudomonas aeruginosa, UniProt P40947 1-165, W40A); experiment: EMSA
PaSSB(F60A) = PaSSB(F60A) (Pseudomonas aeruginosa, UniProt P40947 1-165, F60A); experiment: EMSA
PaSSB(W54A) = PaSSB(W54A) (Pseudomonas aeruginosa, UniProt P40947 1-165, W54A); experiment: EMSA

Row | Molecule | ATPase activity of KpPriA with 10 μM KpSSBn-StSSBc, fold stimulation [1] [fold] | apparent K (half saturation) (PaSSB) [nM] | apparent K (half saturation) (PaSSB(W88A)) [nM] | apparent K (half saturation) (PaSSB(W40A)) [nM] | apparent K (half saturation) (PaSSB(F60A)) [nM] | apparent K (half saturation) (PaSSB(W54A)) [nM]
1 | KpSSBn-StSSBc chimeric protein (from UniProt P0A2F6 92-176) | 14 |  |  |  |  | 
2 | TTTTTTTTTTTTTTTTTTTTTTTTTTTTTTTTTTTTTTTTTTTTTTTTTT (ssDNA) [dT50] |  | 355 ± 21 | 1230 ± 61 | 434 ± 19 | 569 ± 24 | 522 ± 26

Source: paper PMC9087215
